T1: BR-CC (GCN4 basic region with idealized leucine zipper) (Saccharomyces cerevisiae)
T1 chain: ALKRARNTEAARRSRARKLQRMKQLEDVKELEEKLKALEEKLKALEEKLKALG

T2: ATF-2 (GST fusion) (UniProt P15336 P15336:144-505)
T2 sequence: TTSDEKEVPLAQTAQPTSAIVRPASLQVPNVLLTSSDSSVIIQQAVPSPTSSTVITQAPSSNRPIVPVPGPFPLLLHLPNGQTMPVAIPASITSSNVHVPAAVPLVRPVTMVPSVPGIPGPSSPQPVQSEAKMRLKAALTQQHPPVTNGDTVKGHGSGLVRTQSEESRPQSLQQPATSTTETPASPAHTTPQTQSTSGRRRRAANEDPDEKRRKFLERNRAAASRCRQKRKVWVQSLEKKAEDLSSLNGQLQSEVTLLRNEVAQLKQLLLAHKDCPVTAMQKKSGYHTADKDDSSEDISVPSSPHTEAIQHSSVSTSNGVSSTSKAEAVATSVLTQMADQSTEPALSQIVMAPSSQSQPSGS

T3: ATF-1 (GST fusion) (UniProt P18846 P18846:57-271)
T3 sequence: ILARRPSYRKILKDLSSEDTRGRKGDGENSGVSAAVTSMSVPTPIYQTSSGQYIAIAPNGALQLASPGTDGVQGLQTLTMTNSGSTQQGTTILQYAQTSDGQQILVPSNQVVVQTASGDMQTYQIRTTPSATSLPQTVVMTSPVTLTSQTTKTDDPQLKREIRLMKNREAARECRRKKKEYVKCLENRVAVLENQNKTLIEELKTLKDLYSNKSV

B1: collagenase TRE oligoduplex (dsDNA)
DNA 1: AGCTTTGACTCATCCCGGA
DNA 2: TCCGGGATGAGTCAAAGCT
B2: CRE core oligoduplex (dsDNA)
DNA 1: TCCTAAGTGACGTCAGTGGAA
DNA 2: TTCCACTGACGTCACTTAGGA

Tests used:
[1] = target: T1, BR-CC (GCN4 basic region with idealized …); assay: EMSA; stimulated by pX; details: protein: synthetic; tags: synthetic peptide; chain copies: 2; label: 32P
ZTA minimal bZIP = ZTA minimal bZIP (Epstein-Barr virus, UniProt P03206 P03206:175-229); assay: EMSA; stimulated by pX; details: chain copies: 2; label: 32P
Chain of ZTA minimal bZIP (P03206 175-229, one chain of several): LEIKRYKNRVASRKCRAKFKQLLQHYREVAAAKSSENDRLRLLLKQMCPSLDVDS

GCN4 minimal bZIP = GCN4 minimal bZIP (Saccharomyces cerevisiae, UniProt P03069 P03069:228-281); assay: EMSA; enhanced by pX; details: protein: synthetic; tags: synthetic peptide per text; chain copies: 2; label: 32P
Chain of GCN4 minimal bZIP (P03069 228-281, one chain of several): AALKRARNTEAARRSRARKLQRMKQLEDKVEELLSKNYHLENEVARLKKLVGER

ATF-2 (GST fusion) = target: T2, ATF-2 (GST fusion); assay: EMSA; low binding without pX, greatly increased by pX; details: tags: GST (pGEX-2T); chain copies: 2; label: 32P
CREB (GST fusion) = CREB (GST fusion) (UniProt P16220-1 P16220-1:23-341); assay: EMSA; low binding without pX, greatly increased by 100 ng pX; details: tags: GST (pGEX-2T); chain copies: 2; label: 32P
Chain of CREB (GST fusion) (P16220 other isoform, or with tags, fused parts or gaps): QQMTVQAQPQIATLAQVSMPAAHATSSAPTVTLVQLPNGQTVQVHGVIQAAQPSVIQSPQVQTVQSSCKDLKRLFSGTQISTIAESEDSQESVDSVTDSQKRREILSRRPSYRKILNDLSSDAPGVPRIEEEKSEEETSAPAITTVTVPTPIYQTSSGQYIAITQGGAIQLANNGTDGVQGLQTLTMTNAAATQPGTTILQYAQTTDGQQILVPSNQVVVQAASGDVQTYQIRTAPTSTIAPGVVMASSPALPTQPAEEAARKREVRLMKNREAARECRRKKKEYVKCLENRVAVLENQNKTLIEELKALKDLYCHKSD

pX = pX (Hepatitis B virus, UniProt P03165 P03165:1-154); assay: EMSA; no detectable interaction of pX with DNA without transcription factor; details: tags: His (pRSET-C); label: 32P
Chain of pX (P03165 whole entry, the tested form may be a part, one chain of several): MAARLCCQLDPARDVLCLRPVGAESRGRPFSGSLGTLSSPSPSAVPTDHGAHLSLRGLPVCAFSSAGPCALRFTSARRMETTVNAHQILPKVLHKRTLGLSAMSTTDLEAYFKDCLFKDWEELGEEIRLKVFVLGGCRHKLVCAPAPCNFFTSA

ATF-1 (GST fusion) = target: T3, ATF-1 (GST fusion); assay: EMSA; low binding without pX, greatly increased by pX; TFIIB or E. coli extract no effect; details: tags: GST (pGEX-2T); chain copies: 2; label: 32P

Row | Binder | binding result [1] | binding result (ZTA minimal bZIP) | binding result (GCN4 minimal bZIP) | binding result (ATF-2 (GST fusion)) | binding result (CREB (GST fusion)) | binding result (pX) | binding result (ATF-1 (GST fusion))
1 | B1 | binds | binds | binds | – | – | – | –
2 | B2 | – | – | – | binds | binds | no binding | binds

— patent US6051373, “Methods for screening for inhibitors of the transcription-enhancing activity of the X protein of hepatitis B virus” (Scriptgen Pharmaceuticals, Inc.)
